Measurements published in patent publication US20240335558A1, “ISOLATED POLYPEPTIDE AND USE THEREOF” (GLYCO-THERAPY BIOTECHNOLOGY CO., LTD., priority 2021, published 2024).

Legend:
Assay type in all cases: biochemical
[1] = system: Trastuzumab-(GalNAzβ1,4)GlcNAc; experiment: Transfer of GDP-FAmP4Biotin to Trastuzumab-(GalNAzβ1,4)GlcNAc by different HpFTs; settings: donor GDP-FAmP4Biotin 1 mM, enzyme 0.5 mg/mL, 30° C., 3 h; FIG. 4
[2] = system: Trastuzumab-(GalNAzβ1,4)GlcNAc; experiment: HpFT-2HR and HpFT-4HR transferring GDP-FAmP4Biotin or GDP-FAzP4Biotin to Trastuzumab-(GalNAzβ1,4)GlcNAc; settings: enzyme 0.5 mg/mL, 6 h, FIG. 6(B)
Method: To 40 mM Tris-HCl (pH 7.5) buffer were added Trastuzumab-(Fucα1,6)(Galβ1,4)GlcNAc (2 mg/mL final), GDP-FAmP4Biotin (1 mM final), MgCl2 (20 mM final), and different HpFT enzymes (HpFT-4HR, HpFT-4HR(M4), HpFT-4HR(M7), HpFT-6HR, HpFT-3HR, HpFT-2HR, HpFT-1HR or HpFT-0HR) (0.5 mg/mL final) in sequence, and the resulting mixed solution was allowed to react at 30° C. for 1 h. Three parallels were set up for each group. After the reaction time point was reached, to the reaction solution was added 10 mM LacNA, and the reaction was terminated by a desalting column (Zeba™ Spin Desalting Columns/2 ml/40K, Thermo Fisher Scientific), and finally mass spectrometry was carried out and % of conversion was calculated. % of conversion=(MAR0 peak intensity*0+MAR1peak intensity*1+MAR2 peak intensity*2)/2* (MAR0 peak intensity+MAR1 peak intensity+MAR2 peak intensity)*100%.
To 40 mM Tris-HCl (pH 7.5) buffer were added Trastuzumab-(GalNAzβ1,4)GlcNAc (2 mg/mL final), GDP-FAmP4Biotin or GDP-FAzP4Biotin (1 mM final), MgCl2 (20 mM final), and HpFT-2HR or HpFT-4HR (0.5 mg/mL final) in sequence, and the resulting mixed solution was allowed to react at 30 t for 6 h. Three parallels were set up for each group. After the reaction time point was reached, to the reaction solution was added 10 mM LacNAc, and the reaction was terminated by a desalting column (Zeba™ Spin Desalting Columns/2 ml/40K, Thermo Fisher Scientific), and finally mass spectrometry was carried out and % of conversion was calculated. % of conversion was calculated according to Example 18.

Durvalumab-G2F = experiment: HpFT-2HR and HpFT-4HR transferring GDP-FAmSucMMAE to Durvalumab-G2F; settings: donor 1 mM, enzyme 0.5 mg/mL, 30° C., 3 h and 6 h; FIG. 7B
Method: To 40 mM Tris-HCl (pH 7.5) buffer were added Trastuzumab-G2F (2 mg/mL final), GDP-FAmP4Biotin (1 mM final), MgCl2 (20 mM final), and different HpFT enzymes (HpFT-4HR, HpFT-4HR(M4), HpFT-4HR(M7), HpFT-6HR, HpFT-3HR, HpFT-2HR, HpFT-1HR, or HpFT-0HR) (0.5 mg/mL final) in sequence, and the resulting mixed solution was allowed to react at 30° C. for 3 h. Three parallels were set up for each group. After the reaction time point was reached, to the reaction solution was added 10 mM LacNAc (N-acetyl-D-lactosamine), and the reaction was terminated by a desalting column (Zeba™ Spin Desalting Columns/2 ml/40K, Thermo Fisher Scientific), and finally mass spectrometry was carried out and % of conversion was calculated. % of conversion=(MAR0 peak intensity*0+MAR1peak intensity*1+MAR2 peak intensity*2+MAR3 peak intensity*3+MAR4 peak intensity*4)/4* (MAR0 peak intensity+MAR1 peak intensity+MAR2 peak intensity+MAR3 peak intensity+MAR4 peak intensity)*100%.
To 40 mM Tris-HCl (pH 7.5) buffer were added Trastuzumab-G2F or Durvalumab-G2F (2 mg/mL final), GDP-FAmSucMMAE (1 mM final), MgCl2 (20 mM final), and HpFT-2HR or HpFT-4HR (0.5 mg/mL final) in sequence, and the resulting mixed solution was allowed to react at 30° C. for 3 h and 6 h. Three parallels were set up for each group. […]

B1: HpFT-2HR: H. pylori α-1,3-fucosyltransferase variant: catalytically active domain, two heptapeptide repeat sequences and C-terminus fused His tag (protein)
chain: MFQPLLDAFIESASIEKMVSKSPPPPLKIAVANWWGDEEIKEFKKSVLYFILSQRYAITLHQNPNESSDLVFSNPLGAARKILSYQNTKRVFYTGENESPNFNLFDYAIGFDELDFNDRYLRMPLYYAHLHYEAELVNDTTAPYKLKDNSLYALKKPSHHFKENHPNLCAVVNDESDLLKRGFASFVASNANAPMRNAFYDALNSIEPVTGGGSVRNTLGYKVGNKSEFLSQYKFNLCFENSQGYGYVTEKILDAYFSHTIPIYWGSPSVAKDFNPKSFVNVHDFNNFDEAIDYIKYLHTHPNAYLDMLYENPLNTLDGKAYFYQDLSFKKILDFFKTILENDTIYHNNPFIFYRDLHEPLISIDDLRVNYDDLRVNYLEHHHHHH
modifications: Catalytically active domain of Helicobacter pylori Alpha-(1,3)-fucosyltransferase (GenBank No.AAD07710.1) with 2 heptapeptide repeats and a C-terminal His tag
catalytic activity among the HpFT variants [1]: relatively high catalytic activity | catalytic activity as compared with HpFT-4HR (% of conversion) [1]: significantly improved catalytic activity | activity in catalyzing the transfer of GDP-FAmP4Biotin relative to transfer of GDP-FAzP4Biotin ([2]; donor 1 mM): significantly higher | activity in catalyzing the transfer of GDP-FAmP4Biotin, as compared with HpFT-4HR ([2]; donor GDP-FAmP4Biotin 1 mM): significantly improved activity | activity in catalyzing the transfer of GDP-FAzP4Biotin, as compared with HpFT-4HR ([2]; donor GDP-FAzP4Biotin 1 mM): significantly improved activity | activity in catalyzing the transfer of GDP-FAmSucMMAE, as compared with HpFT-4HR (Durvalumab-G2F): significantly improved activity
